{"source": "paper PMC8551160", "about": "“Structure of PDE3A–SLFN12 complex and structure-based design for a potent apoptosis inducer of tumor cells” (Nature Communications, 2021)", "proteins": {"B1": {"name": "phosphodiesterase 3A (PDE3A), endogenous (enzyme, human (endogenous in HeLa), UniProt Q14432 1-1141, looked up)", "chain": "MAVPGDAARVRDKPVHSGVSQAPTAGRDCHHRADPASPRDSGCRGCWGDLVLQPLRSSRKLSSALCAGSLSFLLALLVRLVRGEVGCDLEQCKEAAAAEEEEAAPGAEGGVFPGPRGGAPGGGARLSPWLQPSALLFSLLCAFFWMGLYLLRAGVRLPLAVALLAACCGGEALVQIGLGVGEDHLLSLPAAGVVLSCLAAATWLVLRLRLGVLMIALTSAVRTVSLISLERFKVAWRPYLAYLAGVLGILLARYVEQILPQSAEAAPREHLGSQLIAGTKEDIPVFKRRRRSSSVVSAEMSGCSSKSHRRTSLPCIPREQLMGHSEWDHKRGPRGSQSSGTSITVDIAVMGEAHGLITDLLADPSLPPNVCTSLRAVSNLLSTQLTFQAIHKPRVNPVTSLSENYTCSDSEESSEKDKLAIPKRLRRSLPPGLLRRVSSTWTTTTSATGLPTLEPAPVRRDRSTSIKLQEAPSSSPDSWNNPVMMTLTKSRSFTSSYAISAANHVKAKKQSRPGALAKISPLSSPCSSPLQGTPASSLVSKISAVQFPESADTTAKQSLGSHRALTYTQSAPDLSPQILTPPVICSSCGRPYSQGNPADEPLERSGVATRTPSRTDDTAQVTSDYETNNNSDSSDIVQNEDETECLREPLRKASACSTYAPETMMFLDKPILAPEPLVMDNLDSIMEQLNTWNFPIFDLVENIGRKCGRILSQVSYRLFEDMGLFEAFKIPIREFMNYFHALEIGYRDIPYHNRIHATDVLHAVWYLTTQPIPGLSTVINDHGSTSDSDSDSGFTHGHMGYVFSKTYNVTDDKYGCLSGNIPALELMALYVAAAMHDYDHPGRTNAFLVATSAPQAVLYNDRSVLENHHAAAAWNLFMSRPEYNFLINLDHVEFKHFRFLVIEAILATDLKKHFDFVAKFNGKVNDDVGIDWTNENDRLLVCQMCIKLADINGPAKCKELHLQWTDGIVNEFYEQGDEEASLGLPISPFMDRSAPQLANLQESFISHIVGPLCNSYDSAGLMPGKWVEDSDESGDTDDPEEEEEEAPAPNEEETCENNESPKKKTFKRRKIYCQITQHLLQNHKMWKKVIEEEQRLAGIENQSLDQTPQSHSSEQIQAIKEEEEEKGKPRGEEIPTQKPDQ", "notes": "PDE3A, human, endogenous in HeLa cells; appeared as its full length in the purification; only the catalytic domain K669-Q1102 is resolved in the cryo-EM maps; the purified band is called full length; It is a homodimer in the complex structures; source: endogenous, HeLa; in lysate (co-IP); co-purified with tagged SLFN12 by Flag-HA tandem pull-down (cryo-EM)"}}, "target": "the molecule itself", "assay": "cryo-EM structure; PDE3A-SLFN12 (K213R) complex purified from nauclefine-treated HeLa cells; single-particle, C2 symmetry, 3.2 Å", "data": [{"protein": "B1", "values": [{"measurement": "stoichiometry N", "value": 2}]}]}
